The target of this test is T1, Cullin-5 (CUL5), residues 12-780 (human, UniProt Q93034 12-780).
T1 construct: source: E. coli BL21 (DE3), coexpressed with RBX2, purified (Ni-NTA, SEC); not shown: GB1, N-terminal, cleaved
T1 sequence: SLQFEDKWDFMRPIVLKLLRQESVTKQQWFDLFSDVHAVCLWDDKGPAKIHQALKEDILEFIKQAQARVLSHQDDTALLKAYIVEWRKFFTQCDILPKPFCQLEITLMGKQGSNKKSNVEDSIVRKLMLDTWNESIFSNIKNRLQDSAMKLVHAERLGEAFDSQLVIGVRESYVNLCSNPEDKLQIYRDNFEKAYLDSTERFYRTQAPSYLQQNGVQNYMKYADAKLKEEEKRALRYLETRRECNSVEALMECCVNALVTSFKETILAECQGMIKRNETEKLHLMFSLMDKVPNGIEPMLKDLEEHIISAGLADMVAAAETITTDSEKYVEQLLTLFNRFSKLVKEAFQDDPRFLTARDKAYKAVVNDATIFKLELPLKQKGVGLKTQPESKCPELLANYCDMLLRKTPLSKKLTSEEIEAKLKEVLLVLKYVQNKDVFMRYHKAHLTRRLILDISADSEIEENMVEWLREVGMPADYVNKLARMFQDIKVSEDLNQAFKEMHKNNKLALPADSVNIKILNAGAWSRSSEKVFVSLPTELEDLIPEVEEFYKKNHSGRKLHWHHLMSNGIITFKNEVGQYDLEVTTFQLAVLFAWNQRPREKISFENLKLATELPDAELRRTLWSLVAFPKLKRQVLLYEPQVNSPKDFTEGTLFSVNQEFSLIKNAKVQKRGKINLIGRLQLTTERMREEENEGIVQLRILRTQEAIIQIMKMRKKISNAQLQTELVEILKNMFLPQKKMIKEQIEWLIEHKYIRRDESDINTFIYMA
In words: cryo-EM structure. The note with it: both partners purified.

B1: zinc finger RING-box protein 2 (RBX2), residues 1-113 (natural protein)
chain: MADVEDGEETCALASHSGSSGSKSGGDKMFSLKKWNAVAMWSWDVECDTCAICRVQVMDACLRCQAENKQEDCVVVWGECNHSFHNCCMSLWVKQNNRCPLCQQDWVVQRIGK
notes: source: E. coli BL21 (DE3), coexpressed with CUL5, purified (Ni-NTA, SEC)
B1: the binding result is “binds”.
